Test results taken from patent US20240165260A1, “CONJUGATES OF ANTIBODY AND FUNCTIONAL SUBSTANCE OR SALTS THEREOF, AND COMPOUNDS USED IN PRODUCTION OF THE SAME OR SALTS THEREOF” (priority 2021, published 2024).

Key:
[1] = Evaluation of hydrophobicity by hydrophobic column chromatography (HIC-HPLC); format: physicochemical; conditions: hydrophobicity measure, Tosoh Biobuthyl NPR column, UV 280 nm
Experimental: According to a previous report (Anal. Chem., 2019, 91, 20, 12724-12732, which is incorporated herein by reference in its entirety), HIC-HPLC analysis was performed. Measurement was performed using the following conditions. The hydrophobicity of an ADC can be evaluated by retention time of the ADC in HIC chromatogram.
Measurement system: Chromaster (registered trademark) (manufactured by Hitachi, Ltd.)
Column: Tosoh Biobuthyl NPR 2.5 μm 4.6×35 mm column manufactured by Tosoh Bio-Sciences Inc.
Gradient: linear gradient of eluent A/B
Eluent B: 25 mM Na2HPO4/NaH2PO4 (pH 6.0, 25 v/v % isopropanol added)

[2] = Evaluation of aggregation ratio by size exclusion chromatography (SEC-HPLC); format: physicochemical; conditions: UV 280 nm
Experimental: SEC-HPLC analysis was performed according to a previous report (Chemistry Select, 2020, 5, 8435-8439, which is incorporated herein by reference in its entirety). Measurement was performed using the following conditions.
Measurement system: 1260 HPLC system (manufactured by Agilent)
Column: AdvanceBio SEC 300 Å, 2.7 μm, 4.6 mm×150 mm, manufactured by Agilent Technologies
Eluent: 100 mM sodium dihydrogen phosphate/sodium hydrogen phosphate, aqueous solution of 250 mM sodium chloride (pH 6.8), 10′% v/v isopropanol

cathepsin B = cathepsin B (Homo sapiens, UniProt P07858); experiment: Cathepsin B cleavability test of ADC mimics (released fluorescent molecules, HPLC/fluorescence); format: biochemical; conditions: 1 mg/mL ADC mimic, MES buffer pH 5.0, 37° C., six hours
Experimental: Cleave abilities for various ADC mimics by cathepsin B were evaluated by analyzing the amount of fluorescent molecules released from the ADC mimics as described below.
A cathepsin B cleavability test was performed as follows according to a previous report (Nature Communications 2018, 9, 2512, which is incorporated herein by reference in its entirety). An ADC mimic was added to 180 μL of a MES buffer (10 mM MES, 40 μM DTT, pH 5.0) so as to have a concentration of 1 mg/mL, and then 30 μL of the solution was poured into each of six Eppendorf tubes. To each of three of the six samples, 100 μL of acetonitrile was immediately added at 0° C. The mixture was stirred by vortex, and then centrifuged to obtain a precipitate. The resulting supernatant solution was collected and subjected to HPLC analysis. The remaining three samples were incubated at 37° C. for six hours. To each of the samples, 100 μL of acetonitrile was added. The mixture was stirred by vortex, and then centrifuged to obtain a precipitate. The resulting supernatant solution was collected and subjected to HPLC analysis.
For the measurement, the amount of fluorescent molecules released from an ADC mimic was measured using a liquid chromatography/fluorescence detection method. The three samples to which acetonitrile was immediately added at 0° C. in Example 7-1 were taken as 0 hour samples, and the three samples incubated at 37° C. for six hours as described in Example 7-1 were taken as 6 hour samples. A difference in fluorescence intensity between the 6 hour samples and the 0 hour samples was analyzed.
Separately, a correlation between the area of a fluorescence intensity area by HPLC and a concentration was calculated using Pyrene. The difference in fluorescence intensity between the ADC mimics was converted into a concentration using the calculation formula. When the concentration at 0 hour was set to 100%, a ratio of the above-described difference in fluorescence intensity was calculated as a releasing ratio.

[3] = Test for stability of ADC mimic in mouse plasma (released fluorescent molecules); format: in vitro ADME; conditions: 0.1 mg/mL, 37° C., four days
Experimental: An ADC mimic was added to 500 μL of mouse plasma (manufactured by Charles River) so as to have a concentration of 0.1 mg/mL, and then the mixture was subjected to sterile filtration. 50 μL of this solution was poured into each of six Eppendorf tubes. Three of the six samples were stored in an incubator set at 37° C. for four days. The remaining three samples were stored in a freezer at −80° C. for four days similarly. To each of the samples, 100 μL of acetonitrile was added. The mixture was stirred by vortex, and then centrifuged to obtain a precipitate. The resulting supernatant solution was collected and subjected to HPLC analysis.
For the measurement, the amount of fluorescent molecules released from an ADC mimic was measured using a liquid chromatography/fluorescence detection method. The three samples stored in a freezer in Example 9-1 were taken as Day=0 samples, and the three samples stored at 37° C. in Example 9-1 were taken as Day=4 samples. A difference in fluorescence intensity between Day=4 samples and Day=0 samples was analyzed.
A releasing ratio of the fluorescent molecules was calculated according to Example 7-2.
Regarding the results, as illustrated in the following Table, a releasing ratio of the fluorescent molecules was evaluated.

Question: For `CNC(=O)CCSC1CC(=O)N(CCCCCC(=O)N(CC(=O)O)CC(=O)N[C@H](C(=O)N[C@@H](CCCNC(N)=O)C(=O)Nc2ccc(COC(=O)N(C)CC(=O)NCc3cc4ccc5cccc6ccc(c3)c4c56)cc2)C(C)C)C1=O` (stereo partly drawn) [ADC mimic 3], which Retention time [1] is on record?
Answer: 12.7 min

Question: What about the aggregation ratio [2] of the same molecule?
Answer: 2.9%

Question: What about the “Releasing ratio of fluorescent molecule for 6 hours” value (shortened to “Releasing ratio … for 6 hours”) (cathepsin B) of the same molecule?
Answer: 100%

Question: What about the “Releasing ratio of payload on Day 4” value [3] of the same molecule?
Answer: 9%

Question: With `CNC(=O)CCSC1CC(=O)N(CCCCCC(=O)N[C@@H](C(=O)N[C@H](CCCNC(N)=O)C(=O)Nc2ccc(COC(=O)N(C)CC(=O)NCc3cc4ccc5cccc6ccc(c3)c4c56)cc2)C(C)C)C1=O` (stereo partly drawn) [ADC mimic 4, reference compound] as the molecule, how does the Retention time [1] read?
Answer: 13.1 min

Question: And the aggregation ratio [2]?
Answer: 6.2%

Question: And the “Releasing ratio … for 6 hours” value (cathepsin B)?
Answer: 53%

Question: What about the “Releasing ratio of payload on Day 4” value [3] of the same molecule?
Answer: 38%

Question: With `CNC(=O)CCSC1CC(=O)N(CCCCCC(=O)N[C@@H](CCC(=O)O)C(=O)N[C@H](C(=O)N[C@@H](CCCNC(N)=O)C(=O)Nc2ccc(COC(=O)N(C)CC(=O)NCc3cc4ccc5cccc6ccc(c3)c4c56)cc2)C(C)C)C1=O` (stereo partly drawn) [ADC mimic 1] as the molecule, how does the Retention time [1] read?
Answer: 12.8 min

Question: What about the aggregation ratio [2] of the same molecule?
Answer: 3.0%

Question: And the “Releasing ratio … for 6 hours” value (cathepsin B)?
Answer: 88%

Question: What about the “Releasing ratio of payload on Day 4” value [3] of the same molecule?
Answer: 8%
